Experimental data from patent US20260266848A1, “COMPOSITIONS AND METHODS FOR DIAGNOSING AND TREATING DYSTONIA” (Duke University, priority 2023, published 2026).

What was measured:
DYT-TOR1A MEF EVs = test: Quantitative LC-MS/MS proteomics of EVs from drug-treated DYT-TOR1A MEF cultures (ritonavir, salubrinal); type: cell-based, mouse; set-up: key to RTV Corrective Direction / RTV Corrective Direction, Grwd1 / RTV Corrective Direction, Srrm2 / RTV Corrective Direction, Rbm17 / RTV Corrective Direction, Dcaf8 / RTV Corrective Direction, Edil3 / RTV Corrective Direction, Timp3 / RTV Corrective Direction, Heatr3 / RTV Corrective Direction, Brd4 / RTV Corrective Direction, P3h4 / RTV Corrective Direction, Pacsin3 / RTV Corrective Direction, Naa50 / RTV Corrective Direction, Lpar6 / RTV Corrective Direction, Ndrg1 / RTV Corrective Direction, Kntc1 / RTV Corrective Direction, Cdk11b / RTV Corrective Direction, Sumo1 / RTV Corrective Direction, Lsm4 / RTV Corrective Direction, Hmga2 / RTV Corrective Direction, Cstf1 / RTV Corrective Direction, Tes / RTV Corrective Direction, Sbno1 / RTV Corrective Direction, Unc119b / RTV Corrective Direction, Cfdp1 / RTV Corrective Direction, Sec61b: YES = protein abundance effect opposite to DYT/WT; settings: EV protein abundance; for RTV Corrective Direction: DYT + RTV (ritonavir) vs DYT, direction compared with DYT/WT; for DYT + RTV/DYT Cohen's d: ritonavir (RTV)-treated DYT vs DYT
WT MEF EVs = test: Quantitative LC-MS/MS proteomics of EVs from ISRIB-treated WT MEF cultures; type: cell-based, mouse; set-up: key to ISRIB and DYT Parallel Direction / ISRIB and DYT Parallel Direction, Ctdsp1 / ISRIB and DYT Parallel Direction, Pcdh19 / ISRIB and DYT Parallel Direction, Tspan7 / ISRIB and DYT Parallel Direction, Myo1e / ISRIB and DYT Parallel Direction, Plpp3 / ISRIB and DYT Parallel Direction, Sh3bp4 / ISRIB and DYT Parallel Direction, Dnajc7 / ISRIB and DYT Parallel Direction, Drg1 / ISRIB and DYT Parallel Direction, Maea: YES = protein abundance effect similar to DYT/WT; settings: EV protein abundance; for WT + ISRIB/WT Cohen's d: ISRIB-treated WT vs WT; for ISRIB and DYT Parallel Direction: WT + ISRIB vs WT, direction compared with DYT/WT

Molecule	RTV Corrective Direction (DYT-TOR1A MEF EVs)	DYT + RTV/DYT Cohen's d (DYT-TOR1A MEF EVs)	WT + ISRIB/WT Cohen's d (WT MEF EVs)	ISRIB and DYT Parallel Direction (WT MEF EVs)
Eif4b (protein, UniProt Q8BGD9 1-611, looked up) Eukaryotic translation …: MAASAKKKNKKGKTISLTDFLAEDGGTGGGSTYVPKPVSWADETDDLEGDVSTTWHSNDDDVYRAPPIDRSILPTAPRAAREPNIDRSRLPKSPPYTAFLGNLPYDVTEDSIKDFFRGLNISAVRLPREPSNPDRLKGFGYAEFEDLDSLLSALSLNEESLGNRRIRVDVADQAQDKDRDDRSFGRDRNRDSDKTDTDWRARPTTDSFDDYPPRRGDDSFGDKYRDRYDSDRYRDGYRDGYRDGPRRDMDRYGGRDRYDDRGSRDYDRGYDSRIGSGRRAFGSGYRRDDDYRGGGDRYEDRYDRRDDRSWSSRDDYSRDDYRRDDRGPPQRPRLNLKPRSAPKEDDASASTSQSSRAASIFGGAKPVDTAAREREVEERLQKEQEKLQRQLDEPKLDRRPRERHPSWRSEETQERERSRTGSESSQTGASATSGRNTRRRESEKSLENETLNKEEDCHSPTSKPPKPDQPLKVMPAPPPKENAWVKRSSNPPARSQSSDTEQPSPTSGGGKVAAVQPPEEGPSRKDGNKVDVVGATQGQAGSCSRGPGDGGSRDHWKDLDRKDGKKDQDSRSAPEPKKPEENPASKFSSASKYAALSVDGEDEDEGDDCTE	YES	−1.72	3.88	YES
Col6a1 (protein, UniProt Q04857 20-1025, looked up) Collagen alpha-1(VI) chain: QDIQGSKAIAFQDCPVDLFFVLDTSESVALRLKPYGALVDKVKSFTKRFIDNLRDRYYRCDRNLVWNAGALHYSDEVEIIRGLTRMPSGRDELKASVDAVKYFGKGTYTDCAIKKGLEELLIGGSHLKENKYLIVVTDGHPLEGYKEPCGGLEDAVNEAKHLGIKVFSVAITPDHLEPRLSIIATDHTYRRNFTAADWGHSRDAEEVISQTIDTIVDMIKNNVEQVCCSFECQAARGPPGPRGDPGYEGERGKPGLPGEKGEAGDPGRPGDLGPVGYQGMKGEKGSRGEKGSRGPKGYKGEKGKRGIDGVDGMKGETGYPGLPGCKGSPGFDGIQGPPGPKGDAGAFGMKGEKGEAGADGEAGRPGNSGSPGDEGDPGEPGPPGEKGEAGDEGNAGPDGAPGERGGPGERGPRGTPGVRGPRGDPGEAGPQGDQGREGPVGIPGDSGEAGPIGPKGYRGDEGPPGPEGLRGAPGPVGPPGDPGLMGERGEDGPPGNGTEGFPGFPGYPGNRGPPGLNGTKGYPGLKGDEGEVGDPGEDNNDISPRGVKGAKGYRGPEGPQGPPGHVGPPGPDECEILDIIMKMCSCCECTCGPIDILFVLDSSESIGLQNFEIAKDFIIKVIDRLSKDELVKFEPGQSHAGVVQYSHNQMQEHVDMRSPNVRNAQDFKEAVKKLQWMAGGTFTGEALQYTRDRLLPPTQNNRIALVITDGRSDTQRDTTPLSVLCGADIQVVSVGIKDVFGFVAGSDQLNVISCQGLSQGRPGISLVKENYAELLDDGFLKNITAQICIDKKCPDYTCPITFSSPADITILLDSSASVGSHNFETTKVFAKRLAERFLSAGRADPSQDVRVAVVQYSGQGQQQPGRAALQFLQNYTVLASSVDSMDFINDATDVNDALSYVTRFYREASSGATKKRVLLFSDGNSQGATAEAIEKAVQEAQRAGIEIFVVVVGPQVNEPHIRVLVTGKTAEYDVAFGERHLFRVPNYQALLRGVLYQTVSRKVALG	YES	−1.96	0.14	YES
Psmd4 (protein, UniProt O35226 1-376, looked up) 26S proteasome non-ATPase …: MVLESTMVCVDNSEYMRNGDFLPTRLQAQQDAVNIVCHSKTRSNPENNVGLITLANDCEVLTTLTPDTGRILSKLHTVQPKGKITFCTGIRVAHLALKHRQGKNHKMRIIAFVGSPVEDNEKDLVKLAKRLKKEKVNVDIINFGEEEVNTEKLTAFVNTLNGKDGTGSHLVTVPPGPSLADALISSPILAGEGGAMLGLGASDFEFGVDPSADPELALALRVSMEEQRQRQEEEARRAAAASAAEAGIATPGTEDSDDALLKMTINQQEFGRPGLPDLSSMTEEEQIAYAMQMSLQGTEFSQESADMDASSAMDTSDPVKEEDDYDVMQDPEFLQSVLENLPGVDPNNAAIRSVMGALASQATKDGKNDKKEEEKK	YES	−0.60	0.71	YES
Cyb5r3 (protein, UniProt Q9DCN2 2-301, looked up) NADH-cytochrome b5 reductase 3: GAQLSTLSHVVLSPVWFIYSLFMKLFQRSTPAITLENPDIKYPLRLIDKEVISPDTRRFRFALPSPQHILGLPIGQHIYLSTRIDGNLVIRPYTPVSSDDDKGFVDLVVKVYFKDTHPKFPAGGKMSQYLENMKIGDTIEFRGPNGLLVYQGKGKFAIRADKKSNPVVRTVKSVGMIAGGTGITPMLQVIRAVLKDPNDHTVCYLLFANQSEKDILLRPELEELRNEHSARFKLWYTVDKAPDAWDYSQGFVNEEMIRDHLPTPGEEPLILMCGPPPMIQFACLPNLERVGHPKERCFTF	YES	0.64	0.64	YES
Fh (protein, UniProt P97807 42-507, looked up) Fumarate hydratase, …: ASQNSFRVEFDTFGELKVPTDKYYGAQTVRSTMNFKIGGATERMPIPVIQAFGILKRAAAEVNQEYGLDPKIASAIMKAADEVAEGKLNDHFPLVVWQTGSGTQTNMNVNEVISNRAIEMLGGELGSKKPVHPNDHVNKSQSSNDTFPTAMHIAAAVEVHKVLLPGLQKLHDALSAKSKEFAQVIKIGRTHTQDAVPLTLGQEFSGYVQQVQYAMVRIKAAMPRIYELAAGGTAVGTGLNTRIGFAEKVAAKVAALTGLPFVTAPNKFEALAAHDALVELSGAMNTAACSLMKIANDIRFLGSGPRSGLGELILPENEPGSSIMPGKVNPTQCEAMTMVAAQVMGNHVAVTVGGSNGHFELNVFKPMMIKNVLHSARLLGDASVSFTDNCVVGIQANTERINKLMNESLMLVTALNPHIGYDKAAKIAKTAHKNGSTLKETAIELGYLTAEQFDEWVKPKDMLGPK	YES	2.12	−0.28	YES
Eef1e1 (protein, UniProt Q9D1M4 2-174, looked up) Eukaryotic translation …: AAAAELRLLEKSLGLKPGNKYSAQGERQIPVLQTNNGPSLMGLSTIATHLVKQASKEHLLGSTAEEKAMVQQWLEFRVTRVDGHSSKEDTQTLLKDLNSYLEDKVYLAGHNITLADILLYYGLHRFIVDLTVQEKEKYLNVSRWFCHIQHYPDIRQHLSSIVFIKNRLYANSH	YES	16.90	−3.65	YES
Stxbp2 (protein, UniProt Q64324 1-593, looked up) Syntaxin-binding protein 2: MAPLGLKAVVGEKILSGVIRSVKKDGEWKVLIMDHPSMRILSSCCKMSDILAEGITIVEDINKRREPIPSLEAIYLLSPTEKSVQALIADFQGTPTFTYKAAHIFFTDTCPEPLFSELGRSRLAKAVKTLKEIHLAFLPYEAQVFSLDAPHSTYNLYCPFRAGERGRQLDALAQQIATLCATLQEYPSIRYRKGPEDTAQLAHAVLAKLNAFKADTPSLGEGPEKTRSQLLIMDRAADPVSPLLHELTFQAMAYDLLDIEQDTYRYETTGLSESREKAVLLDEDDDLWVELRHMHIADVSKKVTELLKTFCESKRLTTDKANIKDLSHILKKMPQYQKELNKYSTHLHLADDCMKHFKGSVEKLCSVEQDLAMGSDAEGEKIKDAMKLIVPVLLDASVPPYDKIRVLLLYILLRNGVSEENLAKLIQHANVQSYSSLIRNLEQLGGTVTNSAGSGTSSRLERRERMEPTYQLSRWSPVIKDVMEDVVEDRLDRKLWPFVSDPAPVPSSQAAVSARFGHWHKNKAGVEARAGPRLIVYIVGGVAMSEMRAAYEVTRATEGKWEVLIGSSHILTPTRFLDDLKTLDQKLEGVALP	YES	1.82	−0.96	YES
Ddx3x (protein, UniProt Q62167 2-662, looked up) ATP-dependent RNA helicase …: SHVAVENALGLDQQFAGLDLNSSDNQSGGSTASKGRYIPPHLRNREATKGFYDKDSSGWSSSKDKDAYSSFGSRGDSRGKSSFFGDRGSGSRGRFDDRGRGDYDGIGGRGDRSGFGKFERGGNSRWCDKSDEDDWSKPLPPSERLEQELFSGGNTGINFEKYDDIPVEATGNNCPPHIESFSDVEMGEIIMGNIELTRYTRPTPVQKHAIPIIKEKRDLMACAQTGSGKTAAFLLPILSQIYADGPGEALRAMKENGRYGRRKQYPISLVLAPTRELAVQIYEEARKFSYRSRVRPCVVYGGAEIGQQIRDLERGCHLLVATPGRLVDMMERGKIGLDFCKYLVLDEADRMLDMGFEPQIRRIVEQDTMPPKGVRHTMMFSATFPKEIQMLARDFLDEYIFLAVGRVGSTSENITQKVVWVEEIDKRSFLLDLLNATGKDSLTLVFVETKKGADSLEDFLYHEGYACTSIHGDRSQRDREEALHQFRSGKSPILVATAVAARGLDISNVKHVINFDLPSDIEEYVHRIGRTGRVGNLGLATSFFNERNINITKDLLDLLVEAKQEVPSWLENMAFEHHYKGSSRGRSKSSRFSGGFGARDYRQSSGASSSSFSSSRASSSRSGGGGHGGSRGFGGGGYGGFYNSDGYGGNYNSQGVDWWGN	YES	2.24	−1.08	YES
